# Measurements reported in PMC10786891, “Massively parallel profiling of RNA-targeting CRISPR-Cas13d”.
# Positions count from the first letter of the chain named. Names and notes keep the numbering of the source.
# T1: EsCas13d, nuclease-dead (Eubacterium siraeum, UniProt B0MS50, R295A;H300A;R849A;H854A)
# T1 sequence: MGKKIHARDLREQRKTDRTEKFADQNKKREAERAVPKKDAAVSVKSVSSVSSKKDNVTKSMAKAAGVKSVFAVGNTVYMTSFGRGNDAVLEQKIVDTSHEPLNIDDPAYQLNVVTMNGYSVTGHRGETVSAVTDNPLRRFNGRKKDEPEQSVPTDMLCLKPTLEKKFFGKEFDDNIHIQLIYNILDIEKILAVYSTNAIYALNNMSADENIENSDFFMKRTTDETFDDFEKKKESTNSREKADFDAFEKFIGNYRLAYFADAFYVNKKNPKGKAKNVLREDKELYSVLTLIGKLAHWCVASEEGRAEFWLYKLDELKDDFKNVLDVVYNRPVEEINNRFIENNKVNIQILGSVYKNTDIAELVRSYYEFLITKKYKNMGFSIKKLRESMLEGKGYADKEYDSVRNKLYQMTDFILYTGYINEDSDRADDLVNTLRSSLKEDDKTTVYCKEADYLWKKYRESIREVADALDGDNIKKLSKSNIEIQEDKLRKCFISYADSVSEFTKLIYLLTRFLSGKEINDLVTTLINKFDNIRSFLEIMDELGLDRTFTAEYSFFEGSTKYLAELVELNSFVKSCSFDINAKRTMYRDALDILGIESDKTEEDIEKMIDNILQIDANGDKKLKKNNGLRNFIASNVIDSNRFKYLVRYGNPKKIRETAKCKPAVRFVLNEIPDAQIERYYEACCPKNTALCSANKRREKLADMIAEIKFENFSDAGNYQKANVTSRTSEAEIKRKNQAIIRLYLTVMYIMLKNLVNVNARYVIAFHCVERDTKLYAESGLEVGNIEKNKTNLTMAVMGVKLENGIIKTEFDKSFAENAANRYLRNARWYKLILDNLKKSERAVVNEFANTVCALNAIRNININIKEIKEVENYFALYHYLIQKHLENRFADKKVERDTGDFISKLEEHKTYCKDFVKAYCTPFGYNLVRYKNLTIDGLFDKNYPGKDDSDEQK
# B1: target 1 MT 5'PFS AGG 3'PFS AUA (mixed)
# RNA 1: CACCCGUGCAAAAAUGCAGGGGUCUAAAACUGAGCGGAUAACCUCUCUAUGG
# RNA 2: GGGAAUGGAUCCACAUCUACGAAUUCAGGCCAUAGAGAGGUUAUCCGCUCAAUAAGAUCGGAAGAGCACACGU
# B2: target 1 MT 5'PFS ACA 3'PFS UCU (mixed)
# RNA 1: B1 RNA 1
# RNA 2: B1 RNA 2 with G28C, G29A, A52U, U53C, A54U
# B3: target 1 MT 5'PFS GAA 3'PFS UUA (mixed)
# RNA 1: B1 RNA 1
# RNA 2: B1 RNA 2 with A27G, G28A, G29A, A52U
# B4: target 1 MT 5'PFS GAC 3'PFS ACC (mixed)
# RNA 1: B1 RNA 1
# RNA 2: B1 RNA 2 with A27G, G28A, G29C, U53C, A54C
# B5: target 1 MT 5'PFS GAC 3'PFS CAC (mixed)
# RNA 1: B1 RNA 1
# RNA 2: B1 RNA 2 with A27G, G28A, G29C, A52C, U53A, A54C
# B6: target 1 MT 5'PFS ACC 3'PFS UUG (mixed)
# RNA 1: B1 RNA 1
# RNA 2: B1 RNA 2 with G28C, G29C, A52U, A54G
# B7: target 1 MT 5'PFS GAC 3'PFS ACU (mixed)
# RNA 1: B1 RNA 1
# RNA 2: B1 RNA 2 with A27G, G28A, G29C, U53C, A54U
# B8: target 1 A18C,C22A (mixed)
# RNA 1: B1 RNA 1
# RNA 2: B1 RNA 2 with A27G, G28U, G29A, C30A, A34C, A52C, U53C, A54G
# B9: target 1 MT 5'PFS CCU 3'PFS UCA (mixed)
# RNA 1: B1 RNA 1
# RNA 2: B1 RNA 2 with A27C, G28C, G29U, A52U, U53C
# B10: target 1 MT 5'PFS GAC 3'PFS CAA (mixed)
# RNA 1: B1 RNA 1
# RNA 2: B1 RNA 2 with A27G, G28A, G29C, A52C, U53A
# B11: target 1 U3G,G5C (mixed)
# RNA 1: B1 RNA 1
# RNA 2: B1 RNA 2 with A27G, G28U, G29A, G47C, U49G, A52C, U53C, A54G
# B12: target 1 MT 5'PFS GAA 3'PFS UUC (mixed)
# RNA 1: B1 RNA 1
# RNA 2: B1 RNA 2 with A27G, G28A, G29A, A52U, A54C
# B13: target 1 MT 5'PFS GUA 3'PFS ACA (mixed)
# RNA 1: B1 RNA 1
# RNA 2: B1 RNA 2 with A27G, G28U, G29A, U53C
# B14: target 1 MT 5'PFS CUC 3'PFS UGC (mixed)
# RNA 1: B1 RNA 1
# RNA 2: B1 RNA 2 with A27C, G28U, G29C, A52U, U53G, A54C
# B15: target 1 MT 5'PFS UCG 3'PFS CAU (mixed)
# RNA 1: B1 RNA 1
# RNA 2: B1 RNA 2 with A27U, G28C, A52C, U53A, A54U
# B16: target 1 MT 5'PFS GAA 3'PFS UUG (mixed)
# RNA 1: B1 RNA 1
# RNA 2: B1 RNA 2 with A27G, G28A, G29A, A52U, A54G
# B17: target 1 MT 5'PFS UAA 3'PFS UCA (mixed)
# RNA 1: B1 RNA 1
# RNA 2: B1 RNA 2 with A27U, G28A, G29A, A52U, U53C
# B18: target 1 MT 5'PFS GUA 3'PFS ACU (mixed)
# RNA 1: B1 RNA 1
# RNA 2: B1 RNA 2 with A27G, G28U, G29A, U53C, A54U
# B19: target 1 MT 5'PFS UCC 3'PFS UGC (mixed)
# RNA 1: B1 RNA 1
# RNA 2: B1 RNA 2 with A27U, G28C, G29C, A52U, U53G, A54C
# B20: target 1 MT 5'PFS UCC 3'PFS AAA (mixed)
# RNA 1: B1 RNA 1
# RNA 2: B1 RNA 2 with A27U, G28C, G29C, U53A
# B21: target 1 MT 5'PFS GAA 3'PFS UUU (mixed)
# RNA 1: B1 RNA 1
# RNA 2: B1 RNA 2 with A27G, G28A, G29A, A52U, A54U
# B22: target 1 MT 5'PFS UCC 3'PFS UGA (mixed)
# RNA 1: B1 RNA 1
# RNA 2: B1 RNA 2 with A27U, G28C, G29C, A52U, U53G
# B23: target 1 MT 5'PFS CAC 3'PFS CAA (mixed)
# RNA 1: B1 RNA 1
# RNA 2: B1 RNA 2 with A27C, G28A, G29C, A52C, U53A
# B24: target 1 MT 5'PFS UCG 3'PFS CAA (mixed)
# RNA 1: B1 RNA 1
# RNA 2: B1 RNA 2 with A27U, G28C, A52C, U53A
# B25: target 1 MT 5'PFS ACA 3'PFS UCG (mixed)
# RNA 1: B1 RNA 1
# RNA 2: B1 RNA 2 with G28C, G29A, A52U, U53C, A54G
# B26: target 1 MT 5'PFS GUA 3'PFS ACG (mixed)
# RNA 1: B1 RNA 1
# RNA 2: B1 RNA 2 with A27G, G28U, G29A, U53C, A54G
# B27: target 1 insU 3' of 17,insA 3' of 5 (mixed)
# RNA 1: B1 RNA 1
# RNA 2: GGGAAUGGAUCCACAUCUACGAAUUCGUACCAUAGUAGAGGUUAUCCGACUCACCGAGAUCGGAAGAGCACACGU
# B28: target 1 MT 5'PFS GAC 3'PFS ACG (mixed)
# RNA 1: B1 RNA 1
# RNA 2: B1 RNA 2 with A27G, G28A, G29C, U53C, A54G
# B29: target 1 MT 5'PFS UGC 3'PFS AGA (mixed)
# RNA 1: B1 RNA 1
# RNA 2: B1 RNA 2 with A27U, G29C, U53G
# B30: target 1 MT 5'PFS UCG 3'PFS CAC (mixed)
# RNA 1: B1 RNA 1
# RNA 2: B1 RNA 2 with A27U, G28C, A52C, U53A, A54C
# B31: target 1 MT 5'PFS GAC 3'PFS CAU (mixed)
# RNA 1: B1 RNA 1
# RNA 2: B1 RNA 2 with A27G, G28A, G29C, A52C, U53A, A54U
# B32: target 1 MT 5'PFS GUA 3'PFS ACC (mixed)
# RNA 1: B1 RNA 1
# RNA 2: B1 RNA 2 with A27G, G28U, G29A, U53C, A54C
# B33: target 1 MT 5'PFS UAG 3'PFS UAA (mixed)
# RNA 1: B1 RNA 1
# RNA 2: B1 RNA 2 with A27U, G28A, A52U, U53A
# B34: target 1 MT 5'PFS UAA 3'PFS UCC (mixed)
# RNA 1: B1 RNA 1
# RNA 2: B1 RNA 2 with A27U, G28A, G29A, A52U, U53C, A54C
# B35: target 1 insU 3' of 18,insG 3' of 16 (mixed)
# RNA 1: B1 RNA 1
# RNA 2: GGGAAUGGAUCCACAUCUACGAAUUCGUACCAUAUGAGGAGGUUAUCCGCUCACCGAGAUCGGAAGAGCACACGU
# B36: target 1 MT 5'PFS CUU 3'PFS AGU (mixed)
# RNA 1: B1 RNA 1
# RNA 2: B1 RNA 2 with A27C, G28U, G29U, U53G, A54U
# B37: target 1 MT 5'PFS UGU 3'PFS CCG (mixed)
# RNA 1: B1 RNA 1
# RNA 2: B1 RNA 2 with A27U, G29U, A52C, U53C, A54G
# B38: target 1 MT 5'PFS AAA 3'PFS UAG (mixed)
# RNA 1: B1 RNA 1
# RNA 2: B1 RNA 2 with G28A, G29A, A52U, U53A, A54G
# B39: target 1 MT 5'PFS AGG 3'PFS AUU (mixed)
# RNA 1: B1 RNA 1
# RNA 2: B1 RNA 2 with A54U
# B40: target 1 MT 5'PFS GAC 3'PFS ACA (mixed)
# RNA 1: B1 RNA 1
# RNA 2: B1 RNA 2 with A27G, G28A, G29C, U53C
# Target: T1, EsCas13d, nuclease-dead
# Test: crRNA (strand 1, pre-loaded); Mg2+; 40 mM Tris-HCl pH 7.5, 150 mM NaCl, 6 mM MgCl2, 1 mM DTT, 0.1% Tween-20, 0.2 mg/ml BSA; 25 C; 10 min per concentration, then washed
# Conditions: tags: His6-TwinStrep-SUMO cleaved; N-terminal SNAP kept (SNAP-Surface 488); label: 3' end held by stalled T7 RNA polymerase
row,Binder,Kd [nM]
1,B1,26.5 ± 8.5
2,B2,7.4 ± 2.8
3,B3,16 ± 2.15
4,B4,75.5 ± 37.5
5,B5,61 ± 21.5
6,B6,7.35 ± 3.35
7,B7,14 ± 5
8,B8,67 ± 13
9,B9,26.5 ± 10.5
10,B10,25.5 ± 8.5
11,B11,16.7 ± 1.1
12,B12,51 ± 21
13,B13,17.6 ± 1.45
14,B14,~60
15,B15,~80
16,B16,12.8 ± 2.6
17,B17,32 ± 9.5
18,B18,10.6 ± 0.75
19,B19,~12.5
20,B20,~23.5

row,Binder,Kd [nM]
1,B21,15.3 ± 2.75
2,B22,~29
3,B23,12 ± 6
4,B24,~44
5,B25,7.7 ± 1.55
6,B26,11 ± 0.92
7,B27,19 ± 4
8,B28,16.7 ± 3.95
9,B29,~23
10,B30,~43.5
11,B31,21.5 ± 8
12,B32,7.95 ± 0.8
13,B33,21.4 ± 4.8
14,B34,82.5 ± 27.5
15,B35,73 ± 31
16,B36,48 ± 12.5
17,B37,34.5 ± 13.5
18,B38,12.9 ± 2.25
19,B39,26.5 ± 7
20,B40,~46
